Measured values taken from article PMC10395195.

Columns and labels:
[1] = molecular target: Tle1^Vc (Vibrio cholerae E1); test: ITC
[2] = molecular target: Tle1^Vc (Vibrio cholerae E1); test: SPR

## Tli1^tox- (natural protein)
[1]
  Kd: 0.00035 µM

## VgrG1^E1 (natural protein)
[2]
  Kd: 2.03 µM
